Assay: soluble on expression in E. coli; label from the status in PepcDB or PDB records

Sequence | soluble on expression in E. coli
MVHLAKYIVVTGGVVSSIGKGITAASIGRILRSYGLSVTAIKIDPYLNWDSGTLNPYQHGEVFVTDDGMETDLDLGHYERFLDSDLPGEANITTGKVYMSVINKERSGDYLGSCVQIIPHITDEIKSMIRKIADKSGAEVVLVEVGGTVGDIEGQPFLEALRQLRNEEGHENVMFVHVTYVPYLRAAGEFKTKPTQHSTKELRSTGINPDMIICRSEMPIDSSLKRKIAHFCDVEEEAVVNAPDASSIYEVPLVLDSERVGDYIVRRIELDVDGEADLSEWAGIVESLMIDEPVVTVGIVGKYVELEDSYISIREALKHAAAHLRVRVDIEWISADDAVNEEDLSRLDSILIPGGFGERGIAGKLEAVRFALENRVPIFGICLGMQCMVIEFARLNGMEGANSTEFDPETPYPVIDMMEEQKRIKNMGGTMRLGSYQCRIREGTLAHEAYGTELVGERHRHRFELNNEFREELESKGLIISGTSPDDFLVEMVEIKDHPWFLGCQFHPEFRSRPNRAHPLFVSFLRAALERSR | soluble
MHHHHHHSSGVDLGTENLYFQSNAMNDPKVIVALDYDNLADALAFVDKIDPSTCRLKVGKEMFTLFGPDFVRELHKRGFSVFLDLKFHDIPNTCSKAVKAAAELGVWMVNVHASGGERMMAASREILEPYGKERPLLIGVTVLTSMESADLQGIGILSAPQDHVLRLATLTKNAGLDGVVCSAQEASLLKQHLGREFKLVTPGIRPAGSEQGDQRRIMTPAQAIASGSDYLVIGRPITQAAHPEVVLEEINSSLV | soluble
AIAEGEYRLTRSYAVVDITAQVDDSAILEPFACVMARARIGPRTRVGAHSVVGVGVSVGADCCIYHHVTLLNCDIGDRCVIHSGVAIGQDGFGFEVDQQTGKVRKKPQELSVRIGNEVEIGANTCIDRGSWRDTLIEDAVKIDNLVQIGHNVQVGANTFICGQAGVAGSTKIGRYCRFGGRSGAVDHLEIGDHVDVAANSVLTRNAPGHAVYAGFPAMPMREWRHQQVTLRRLSRAGKRQVDVSADDPEFPK | soluble
MGSSHHHHHHGKTIFVIVPTNEEQVAFLEALAKQDELNFDWQNPPTEPGQPVVILIPSDMVEWFLEMLKAKGIPFTVYVEEGGSENLYFQGGGGGGRRLFLLLAWQPSFAKHLSELEPVPQRAPVEKRRRQHIPLSLQAREELSRKSNELQYHVVTQDWFGQRVDDFVTQHHPEWDYETVKRLVQQGHIYRYRKNGKKRYTRLTDRLEFDELVVVPTASFWERQLAPPSGVELQSSSTSQQQERRQKFHLSAKTREMAQEMVLFKNEHVIVINKPSGVPIMPTHDPLAMNITDLLPAWRYTNTQTPVICHNLDTETSGCVVLARSANTHRMLGRMFVKRVVPNSVYWGFAVGKPPVNFGRIRMHFEVQKGQGGDVIVARPTPTADSKVGIAEFVVNASALEFGSFISFYPLTTRRHQERIMAAHALRAPLLGDAKYGGESAFPHSLSLFWDPARKDVPLHLHHRKIQLPYKNGAGEFVCVTAPLPPHMEKTFKRLGWPVDADDPLIPG | not soluble
MGSDKIHHHHHHMKITFGQQTTKVKQLADKISFDISMGVYKSGDSLPSINQLSQAYEVSRDTVFKAFLDLKERGIIDSTPGKGYYVVGRLKNVLLLLDEYSPFKYALYNSFVKRLSIRYKVDLLFHQYNERLFNTIIRESLGRYNKYIVMNFDNEKLSPNLYKINPSKLLLLDFGKFEKEGFSYVCQDFDQGFYNALFQLADRLRKYQKLVFVLVDDSMHPRSSRDFFERFCADQHLGCEVVSDIEGLQVRRGEVYIAIRQIDVVSIIKKSRVEGLQCGVDFGLIGYNDTPAYEVIDQGITALSVDWEKMGDKAAEFVLQGKTIQDYLPTEVRLRASL | not soluble
MGHHHHHHSHMPPGGHIESGASFSPSAGSDGDKGLKPREEGEAPEAGPCLASQLAPVQWVAPPRLLLRLIFIDLPALLIAPTAESSAEEDEEPHDEGQSSEDQAPIANGLIVIVERVHVPLGAAATVHRQPSHFPR | not soluble
